# What was measured:
# [1] = tested on: HeLa Kyoto; experiment: thermal stability score vs G1/S (z-score of summed log2 fold changes over temperatures); higher = more thermally stable than in G1/S
# [2] = tested on: HeLa Kyoto; experiment: solubility change mitosis vs G1/S (difference of NP-40 vs SDS log2 ratios) (log2 ratio difference); higher = more soluble in mitosis
# [3] = tested on: HeLa Kyoto; experiment: solubility in G1/S (NP-40 vs SDS abundance) (log2 ratio); higher = more soluble; conditions: cell cycle stage: G1/S
# [4] = tested on: HeLa Kyoto; experiment: melting temperature (median over replicates), in situ; higher = more thermally stable
# [5] = cell cycle stage: early G1 (4.5 h after nocodazole release)
# 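Wherever melting temperature (median over replicates), in situ is given: HeLa Kyoto cells synchronized by double thymidine or nocodazole block, proteins quantified by TMT10plex mass spectrometry, three independent biological replicates.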
# 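Wherever solubility change mitosis vs G1/S (difference of NP-40 vs SDS log2 ratios) is given: synchronized HeLa Kyoto cells (double thymidine block for G1/S, nocodazole release for mitosis), protein amounts in NP-40 versus SDS lysates quantified by mass spectrometry, three biological replicates.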
# 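Wherever solubility in G1/S (NP-40 vs SDS abundance) is given: HeLa Kyoto cells arrested at G1/S by double thymidine block, proteins quantified by TMT10plex mass spectrometry in mild NP-40 versus SDS extracts, three biological replicates.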
# 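Wherever thermal stability score vs G1/S (z-score of summed log2 fold changes over temperatures) is given: synchronized HeLa Kyoto cells, proteins quantified by TMT10plex mass spectrometry, three biological replicates, mitosis taken 0.5 h after nocodazole release, G1/S directly after double thymidine block.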
Sequence,"thermal stability score [1, 5]",thermal stability score ([1]; cell cycle stage: mitosis),solubility change mitosis (log2) [2],solubility in G1/S (log2) [3],melting temperature ([4]; cell cycle stage: G1/S) [°C],melting temperature ([4]; cell cycle stage: mitosis) [°C]
MAAPMEVAVCTDSAAPMWSCIVWELHSGANLLTYRGGQAGPRGLALLNGEYLLAAQLGKNYISAWELQRKDQLQQKIMCPGPVTCLTASPNGLYVLAGVAESIHLWEVSTGNLLVILSRHYQDVSCLQFTGDSSHFISGGKDCLVLVWSLCSVLQADPSRIPAPRHVWSHHALPITDLHCGFGGPLARVATSSLDQTVKLWEVSSGELLLSVLFDVSIMAVTMDLAEHHMFCGGSEGSIFQVDLFTWPGQRERSFHPEQDAGKVFKGHRNQVTCLSVSTDGSVLLSGSHDETVRLWDVQSKQCIRTVALKGPVTNAAILLAPVSMLSSDFRPSLPLPHFNKHLLGAEHGDEPRHGGLTLRLGLHQQGSEPSYLDRTEQLQAVLCSTMEKSVLGGQDQLRVRVTELEDEVRNLRKINRDLFDFSTRFITRPAK [WDR18],-1.8,-5.26,0.571,-1.23,56.6,54.1
MAAPPGEYFSVGSQVSCRTCQEQRLQGEVVAFDYQSKMLALKCPSSSGKPNHADILLINLQYVSEVEIINDRTETPPPLASLNVSKLASKARTEKEEKLSQAYAISAGVSLEGQQLFQTIHKTIKDCKWQEKNIVVMEEVVITPPYQVENCKGKEGSALSHVRKIVEKHFRDVESQKILQRSQAQQPQKEAALSS [LSM12],-0.688,-0.784,0.105,-0.264,52.3,52.3
MAAPRPSPAISVSVSAPAFYAPQKKFGPVVAPKPKVNPFRPGDSEPPPAPGAQRAQMGRVGEIPPPPPEDFPLPPPPLAGDGDDAEGALGGAFPPPPPPIEESFPPAPLEEEIFPSPPPPPEEEGGPEAPIPPPPQPREKVSSIDLEIDSLSSLLDDMTKNDPFKARVSSGYVPPPVATPFSSKSSTKPAAGGTAPLPPWKSPSSSQPLPQVPAPAQSQTQFHVQPQPQPKPQVQLHVQSQTQPVSLANTQPRGPPASSPAPAPKFSPVTPKFTPVASKFSPGAPGGSGSQPNQKLGHPEALSAGTGSPQPPSFTYAQQREKPRVQEKQHPVPPPAQNQNQVRSPGAPGPLTLKEVEELEQLTQQLMQDMEHPQRQNVAVNELCGRCHQPLARAQPAVRALGQLFHIACFTCHQCAQQLQGQQFYSLEGAPYCEGCYTDTLEKCNTCGEPITDRMLRATGKAYHPHCFTCVVCARPLEGTSFIVDQANRPHCVPDYHKQYAPRCSVCSEPIMPEPGRDETVRVVALDKNFHMKCYKCEDCGKPLSIEADDNGCFPLDGHVLCRKCHTARAQT [ZYX],-1.65,0.522,-0.128,0.412,55.9,65.5
MAAPSAGSWSTFQHKELMAADRGRRILGVCGMHPHHQETLKKNRVVLAKQLLLSELLEHLLEKDIITLEMRELIQAKVGSFSQNVELLNLLPKRGPQAFDAFCEALRETKQGHLEDMLLTTLSGLQHVLPPLSCDYDLSLPFPVCESCPLYKKLRLSTDTVEHSLDNKDGPVCLQVKPCTPEFYQTHFQLAYRLQSRPRGLALVLSNVHFTGEKELEFRSGGDVDHSTLVTLFKLLGYDVHVLCDQTAQEMQEKLQNFAQLPAHRVTDSCIVALLSHGVEGAIYGVDGKLLQLQEVFQLFDNANCPSLQNKPKMFFIQACRGDETDRGVDQQDGKNHAGSPGCEESDAGKEKLPKMRLPTRSDMICGYACLKGTAAMRNTKRGSWYIEALAQVFSERACDMHVADMLVKVNALIKDREGYAPGTEFHRCKEMSEYCSTLCRHLYLFPGHPPT [CASP2],0.766,3.33,-0.0504,0.0545,50.2,51.5
MAAPSPSGGGGSGGGSGSGTPGPVGSPAPGHPAVSSMQGKRKALKLNFANPPFKSTARFTLNPNPTGVQNPHIERLRTHSIESSGKLKISPEQHWDFTAEDLKDLGEIGRGAYGSVNKMVHKPSGQIMAVKRIRSTVDEKEQKQLLMDLDVVMRSSDCPYIVQFYGALFREGDCWICMELMSTSFDKFYKYVYSVLDDVIPEEILGKITLATVKALNHLKENLKIIHRDIKPSNILLDRSGNIKLCDFGISGQLVDSIAKTRDAGCRPYMAPERIDPSASRQGYDVRSDVWSLGITLYELATGRFPYPKWNSVFDQLTQVVKGDPPQLSNSEEREFSPSFINFVNLCLTKDESKRPKYKELLKHPFILMYEERAVEVACYVCKILDQMPATPSSPMYVD [MAP2K4],0.539,0.431,0.0151,0.456,50.7,51.5
MAAPVDLELKKAFTELQAKVIDTQQKVKLADIQIEQLNRTKKHAHLTDTEIMTLVDETNMYEGVGRMFILQSKEAIHSQLLEKQKIAEEKIKELEQKKSYLERSVKEAEDNIREMLMARRAQ [PFDN1],-5.42,-7.79,0.291,0.242,52.9,52.4
MAAQCVRLARRSLPALALSLRPSPRLLCTATKQKNSGQNLEEDMGQSEQKADPPATEKTLLEEKVKLEEQLKETVEKYKRALADTENLRQRSQKLVEEAKLYGIQAFCKDLLEVADVLEKATQCVPKEEIKDDNPHLKNLYEGLVMTEVQIQKVFTKHGLLKLNPVGAKFDPYEHEALFHTPVEGKEPGTVALVSKVGYKLHGRTLRPALVGVVKEA [GRPEL1],-2.01,-2.29,0.707,0.661,51.2,51
MAAQRPLRVLCLAGFRQSERGFREKTGALRKALRGRAELVCLSGPHPVPDPPGPEGARSDFGSCPPEEQPRGWWFSEQEADVFSALEEPAVCRGLEESLGMVAQALNRLGPFDGLLGFSQGAALAALVCALGQAGDPRFPLPRFILLVSGFCPRGIGFKESILQRPLSLPSLHVFGDTDKVIPSQESVQLASQFPGAITLTHSGGHFIPAAAPQRQAYLKFLDQFAE [OVCA2],-1.18,-0.0698,0.0456,0.171,49.8,51.5

# From the supplement of paper PMC5998384
